We go through two molecules from patent US9433687B2, “Anti-Notch3 antibodies and antibody-drug conjugates” (Pfizer Inc., priority 2012, dated 2016).

Usually IC50 stands for the concentration that inhibits the measured activity by half.

Assay [1] concerns Notch3 signaling in human Notch3 reporter cells co-cultured with DLL4-HEK293 cells. As to the kind of experiment: Notch3 reporter gene co-culture assay. Type of assay: cell-based. Conditions: average of two or three independent experiments; read-out: IC50 (nM) inhibition of Notch3-dependent signaling. As to the method: The ability of anti-Notch3 chimeric antibodies, ch28-hulgG1 and ch75-hulgG1, and humanized antibodies, hu28 and hu75, to inhibit Notch3 signaling were tested in a Notch3-dependent reporter gene co-culture assay. Anti-Notch3 antibodies were pre-incubated with Notch3 reporter cells and then co-cultured with DLL4-HEK293 cells to activate Notch3 signaling or with parental HEK293 cells as a control.
To generate the Notch3 reporter cell line, a series of three sequential, stable transfections were performed in the U-2 OS human osteosarcoma cell line (ATCC, Manassas, Va.). […]
To generate the ligand-expressing cells, HEK293 cells (ATCC) were transfected with a vector for expression of human DLL4. […] Following transfection, HEK293 cells were selected in 0.5 mg/ml G418, and clonal lines were isolated, expanded and analyzed for DLL4 expression. […]
The luminescent readings from Firefly-luciferase were divided by the internal control Renilla-luciferase reading to normalize the signals (termed hereinafter “F/R ratio”). […]
Human Notch3 reporter cells were trypinized and harvested from culture plate in assay medium which consisted 50% complete McCoy's 5A media (McCoy's 5A with 10% FBS and penicillin, streptomycin, Invitrogen) and 50% of complete MEM media (MEM with 10% FBS and penicillin, streptomycin, Invitrogen) and counted. […]
Background: In a reporter assay the amount or activity of a reporter protein is the signal.

The target of the next assay is T1, HCC2429 (Homo sapiens, UniProt Q9UM47).
T1 construct: endogenous Notch3 expressing cell lines, HCC2429 and MDA-MB-468; endogenous in cells; host or cells: HCC2429
As to the kind of experiment: Flow cytometry (FACS) binding, HCC2429. Conditions: 4 μg/mL antibody. How it is done: Unconjugated anti-Notch3 antibodies, hu28 and hu75, were examined for cell surface binding activity to Notch3 expressing cell lines by flow cytometry. Fluorescence activated cell sorting (FACS) analysis was conducted according to standard procedures. Cells were rinsed in HBSS with calcium chloride and magnesium chloride (herein termed HBSS++), harvested using trypsin without EDTA and neutralized with medium containing FBS. Cells were incubated on ice for 30 minutes with 4 μg/mL anti-Notch3 antibodies, hu28 and hu75, in HBSS++containing 3% HICS (heat-inactivated calf serum). Cells were washed three times with cold HBSS++, 3% HICS buffer. Cells were incubated in allophycocyanin-conjugated AffiniPure F(ab′)2 fragment goat anti-human IgG, Fc fragment secondary antibody (Jackson ImmunoResearch Laboratories, Inc., West Grove, Pa.) at 10 μg/mL for 30 minutes on ice in the dark. Cells were washed once with cold HBSS++/3% HICS buffer. Cells were resuspended in HBSS-++/3% HICS, 25 mM HEPES, 1 mM MgCl2 and 25 μg/ml DNaseI. 7-AAD (7-Amino-Actinomycin D) was added for exclusion of nonviable cells. Live cells were analyzed on a BD FACSCalibur flow cytometer (BD Biosciences, San Jose, Calif.). Mean fluorescence intensity (MFI) from channel FL-4 was calculated with FlowJo flow cytometry analysis software (Ashland, Oreg.).
In general terms: Flow cytometry measures light scatter and fluorescence of single cells or particles in a stream.

Assay [2] has as its system HCC2429 or MDA-MB-468 cells. As to the kind of experiment: Co-localization with LAMP1, indirect immunofluorescence. It is filed as cell-based, human. The following applies: 10 μg/ml; after incubation at 37° C. for 90 minutes. As to the method: HCC2429 or MDA-MB-468 cells were cultured in a Lab Tec II 4 chambered coverglass with cover #1.5 borosilicate sterile slides (Thermo Fisher Scientific Inc.). For binding and internalization assays, cells were washed twice with HBSS++ and unconjugated anti-Notch3 antibodies, hu75 and hu28, were added to the cells at a concentration 10 μg/ml in 2% bovine serum albumin (BSA)/HBSS++ for 25 minutes on ice. To visual membrane binding at time 0 minutes, control cells were washed with ice cold HBSS++ and then fixed in 4% paraformaldehyde in PBS for 10 minutes. For antibody internalization, cells were washed twice with ice cold HBSS++ and then pre-warmed complete growth media was added to the cells and placed inside a humidified 37° C., 5% CO2 incubator. Cells were removed from the incubator, washed and fixed as before at multiple time points from 5 minutes to 18 hours. Cells were then washed 3 times with PBS, and permeabilized for 10 minutes with 0.3% Triton X-100 in PBS. Cells were washed 3 times with PBS for 5 minutes each time and then blocked for 1 hour in 3% BSA/PBS. Anti-LAMP-1 mouse monoclonal antibody (H4A3, Abcam) was added at 1:100 in 2% BSA/PBS for overnight incubation at 4° C. Cells were washed twice with PBS for 5 minutes each and then secondary goat anti-human Alexa Fluor 488 and goat anti-mouse Alexa Fluor 555 (Life technologies) were added for 45 minutes in the dark. […]

T1 sequence (Q9UM47 40-2321): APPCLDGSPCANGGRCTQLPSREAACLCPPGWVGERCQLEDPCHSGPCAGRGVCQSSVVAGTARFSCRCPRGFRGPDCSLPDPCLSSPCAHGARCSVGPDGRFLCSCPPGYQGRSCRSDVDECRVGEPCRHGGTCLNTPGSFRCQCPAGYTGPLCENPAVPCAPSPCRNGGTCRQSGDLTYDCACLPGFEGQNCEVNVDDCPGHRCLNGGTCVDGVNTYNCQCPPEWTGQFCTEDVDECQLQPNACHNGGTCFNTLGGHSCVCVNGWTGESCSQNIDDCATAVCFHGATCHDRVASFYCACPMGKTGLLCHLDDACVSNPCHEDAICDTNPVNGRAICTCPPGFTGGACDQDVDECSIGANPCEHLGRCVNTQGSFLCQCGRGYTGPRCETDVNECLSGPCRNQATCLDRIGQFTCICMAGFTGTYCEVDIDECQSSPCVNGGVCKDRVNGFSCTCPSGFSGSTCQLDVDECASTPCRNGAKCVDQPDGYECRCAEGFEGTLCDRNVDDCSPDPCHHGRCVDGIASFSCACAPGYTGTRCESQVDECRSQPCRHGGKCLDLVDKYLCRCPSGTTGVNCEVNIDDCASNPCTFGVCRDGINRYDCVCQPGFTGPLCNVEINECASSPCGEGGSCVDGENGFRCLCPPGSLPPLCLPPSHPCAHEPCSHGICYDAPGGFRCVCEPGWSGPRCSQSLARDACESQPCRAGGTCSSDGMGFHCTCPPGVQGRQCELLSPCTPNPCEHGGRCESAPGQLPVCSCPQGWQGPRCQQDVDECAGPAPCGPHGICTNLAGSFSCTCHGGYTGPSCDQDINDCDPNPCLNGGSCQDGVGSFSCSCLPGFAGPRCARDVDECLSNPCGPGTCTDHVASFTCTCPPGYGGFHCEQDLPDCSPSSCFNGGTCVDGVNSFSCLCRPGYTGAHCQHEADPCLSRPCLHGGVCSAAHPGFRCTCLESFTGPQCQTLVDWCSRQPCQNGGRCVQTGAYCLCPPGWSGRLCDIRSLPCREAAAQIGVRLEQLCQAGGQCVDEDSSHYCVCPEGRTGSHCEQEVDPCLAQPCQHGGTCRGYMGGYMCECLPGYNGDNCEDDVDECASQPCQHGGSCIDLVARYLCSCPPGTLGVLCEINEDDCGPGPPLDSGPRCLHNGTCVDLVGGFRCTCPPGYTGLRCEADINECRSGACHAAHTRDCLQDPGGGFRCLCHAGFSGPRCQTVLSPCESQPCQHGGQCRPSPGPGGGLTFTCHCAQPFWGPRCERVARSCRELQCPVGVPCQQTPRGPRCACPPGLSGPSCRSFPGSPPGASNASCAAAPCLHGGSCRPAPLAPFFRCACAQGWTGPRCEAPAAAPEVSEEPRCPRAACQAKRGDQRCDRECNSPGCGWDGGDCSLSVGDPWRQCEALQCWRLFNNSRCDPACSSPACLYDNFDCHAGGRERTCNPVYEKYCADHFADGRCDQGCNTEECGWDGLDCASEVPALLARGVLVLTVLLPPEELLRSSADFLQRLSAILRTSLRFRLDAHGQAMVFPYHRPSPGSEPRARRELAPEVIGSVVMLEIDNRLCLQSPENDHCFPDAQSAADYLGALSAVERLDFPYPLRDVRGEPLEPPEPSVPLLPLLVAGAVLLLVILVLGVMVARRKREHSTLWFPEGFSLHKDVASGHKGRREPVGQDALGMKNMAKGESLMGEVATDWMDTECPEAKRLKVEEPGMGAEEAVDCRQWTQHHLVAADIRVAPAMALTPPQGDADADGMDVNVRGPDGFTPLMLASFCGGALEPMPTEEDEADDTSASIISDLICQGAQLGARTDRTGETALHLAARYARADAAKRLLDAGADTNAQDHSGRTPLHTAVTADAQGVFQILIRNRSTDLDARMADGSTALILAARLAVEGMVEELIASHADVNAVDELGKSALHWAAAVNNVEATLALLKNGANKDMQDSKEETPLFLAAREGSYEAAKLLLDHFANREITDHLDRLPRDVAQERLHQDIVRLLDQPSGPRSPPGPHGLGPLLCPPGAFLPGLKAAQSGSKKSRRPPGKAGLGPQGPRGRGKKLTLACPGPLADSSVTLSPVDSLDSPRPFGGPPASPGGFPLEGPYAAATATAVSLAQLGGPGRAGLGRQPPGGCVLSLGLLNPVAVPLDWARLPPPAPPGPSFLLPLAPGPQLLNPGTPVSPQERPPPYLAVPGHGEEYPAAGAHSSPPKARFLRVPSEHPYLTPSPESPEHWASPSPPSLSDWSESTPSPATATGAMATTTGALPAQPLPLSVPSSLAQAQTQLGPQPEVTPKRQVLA

B1: ch75: rat-human chimeric anti-Notch3 antibody 75, rat variable regions fused with human IgG1 and human kappa (antibody, V domains shown)
VH: QVKLLQSGAALVKPGASVKMSCKASGYAFTDYWVTWVKQSHGKSLEWIGEISPNSGGTNFNEKFKGKATLTVDKSTSTAYMELSRLTSEDSAIYYCTRGEIRYNWFAYWGQGTLVTVSS
VL: NIVMTQSPKSMSISVGDRVTMNCKASQNVGNNIAWYQQKPGQSPKLLIYYASNRYTGVPDRFTGGGYGTDFTLTINSMQAEDAAFYYCQRLYNSPFTFGSGTKLEIK
Take B1: the IC50 in assay [1] stood at 2.1 nM.

B2: hu28 VH1.0/VL1.0: humanized r28 variant VH1.0/VL1.0, anti-Notch3 antibody (VH SEQ ID NO: 13, VL SEQ ID NO: 25) (antibody, V domains shown)
VH: EVQLVESGGGLVQPGGSLRLSCAASGFTFRDYGMTWVRQAPGKGLEWVAYISSGSNYIYYAEAVKGRFTISRDNAKNSLYLQMNSLRAEDTAVYYCARRGPFVLDAWGQGTLVTVSS
VL: DIQMTQSPSSLSASVGDRVTITCKASQSINRYLHWYQQKPGKAPKLLIYNANGLQTGVPSRFSGSGSGTDFTLTISSLQPEDFATYYCLQHNTWPDTFGGGTKVEIK
In the assay with HCC2429, B2 came in with an MFI of 564. In assay [2], the “co-localization with LAMP1 after internalization” value is given as “co-localized with anti-LAMP1 antibodies”.
